From PMC4938167, “Structural Insights into the Polyphyletic Origins of Glycyl tRNA Synthetases*^([image sbox.jpg])^♦” (The Journal of Biological Chemistry, 2016)

B1: α-subunit of the α2β2 glycyl tRNA synthetase (GlyRS) from Aquifex aeolicus (enzyme)
chain: MYFQDIIMTLHKFWAEKGCLIWQPYDVEVGAGTMNPATFLKVLGKKPWNVAYVEPSRRPQDGRYGENPNRLQHYYQFQVILKPAPRNPQEIYLESLERLGINPLEHDIRFVEDDWESPTLGAWGLGWEVWLDGMEITQFTYFQQAGGLDLDEISVEITYGLERIAMYIQDKDSVFDIEWKEGITYGEIFKRSEWEWSKYNFELADTDMLFQVYEMFEKESKRMVEEGLIFPAYDYLLKCSHVFNILDARGAISVQERARYIRRMNNLAREIAKLYLQVFENVGAT
notes: Glycyl tRNA synthetase α-subunit, Aquifex aeolicus; synthetic cDNA (Genscript), codon-optimised for E. coli, in pET-28; No cleavage of the tag is described; The theoretical mass of the dimer is printed as 67.4 kDa; Crystals were soaked with the glycyl adenylate analog GSAd; also called α-AaGlyRS; α-subunit GlyRS; source: E. coli BL21(DE3), purified (heat treatment 75 °C, Ni2+-Sepharose, size …)

Columns and labels:
[1] = target: T1, α-AaGlyRS (Aquifex aeolicus, UniProt O67081); experiment: thermal shift assay, SYPRO Orange; format: binding; details: 8 mM GSAd; reference Tm without ligand 83.2 °C; 25 mM NaH2PO4, 25 mM KCl, 10 mM MgCl2
T1 construct: gene glyQ; alpha subunit alone of alpha2beta2 GlyRS; synthetic codon-optimised gene in pET-28, N-terminal His6 (His tag/TEV residues kept), E. coli BL21(DE3)

[2] = substrate: NCC(=O)O; experiment: purified protein; format: biochemical, Aquifex aeolicus; details: 0.5 mM ATP, 10 mM MgCl2, 50 mM Tris pH 8.0, 50 mM KCl, 45 °C, 40 μM enzyme, alpha subunit alone
[3] = target: the molecule itself; experiment: SEC-MALS; Superdex S-75 10/300 analytical column, 0.5 ml/min, DAWN Heleos-II and Optilab RI detectors; protein loaded after concentration to 15 mg/ml; one peak with 99.9% of the injected mass

Molecule	Tm with 8 mM ligand [1]	Km [2]	kcat [2]	stoichiometry N [3]
NCC(=O)NS(=O)(=O)OC[C@H]1O[C@@H](n2cnc3c(N)ncnc32)[C@H](O)[C@@H]1O [GSAd, 5′-O-[N-(L-glycyl)sulfamoyl] adenosine]	92.3 °C			
B1		110 ± 16 µM	0.00023 s⁻¹	2
